Literature values as cited in article PMC9731471.

Target: podoplanin (Homo sapiens) (UniProt Q86YL7)

Kd: 24 µM
Substance: CLEC-2 (from UniProt Q9P126)
